# From patent publication US7053185B1, “Lactalbumin production process” (HAMLET Pharma AB, priority 1997, dated 2006)
# B1: Native, monomeric α-lactalbumin: native human milk α-lactalbumin converted to multimeric form on casein conditioned column, eluting at MAL position (protein, UniProt P00709 20-142, looked up)
# Alpha-lactalbumin: KQFTKCELSQLLKDIDGYGGIALPELICTMFHTSGYDTQAIVENNESTEYGLFQISNKLWCKSSQVPQSRNICDISCDKFLDDDITDDIMCAKKILDIKGIDYWLAHKALCTEKLEQWLCEKL
# modifications: multimeric form
# notes: native human milk α-lactalbumin converted to multimeric form on casein conditioned column, eluting at MAL position
# B2: Human α-lactalbumin+, EDTA pre-treatment + EDTA buffer, MAL Peak 2: second peak from EDTA treated human milk α-lactalbumin run with EDTA buffers on casein trained column (protein, UniProt P00709 20-142, looked up)
# Alpha-lactalbumin: B1 Alpha-lactalbumin
# modifications: multimeric form
# notes: second peak from EDTA treated human milk α-lactalbumin run with EDTA buffers on casein trained column
# B3: Commercial human α-lactalbumin, Untreated, MAL Peak 1: first MAL peak from commercial (Sigma) human α-lactalbumin run on casein trained column (protein, UniProt P00709 20-142, looked up)
# Alpha-lactalbumin: B1 Alpha-lactalbumin
# modifications: multimeric form
# notes: first MAL peak from commercial (Sigma) human α-lactalbumin run on casein trained column
# B4: monomeric α-lactalbumin in the molten globule-like state: converted on clean matrix conditioned with lipids extracted from casein conditioned column; single peak at MAL position (protein, UniProt P00709 20-142, looked up)
# Alpha-lactalbumin: B1 Alpha-lactalbumin
# modifications: molten globule form
# notes: converted on clean matrix conditioned with lipids extracted from casein conditioned column; single peak at MAL position
# B5: Human α-lactalbumin+, EDTA pre-treated, MAL Peak 2: second peak from EDTA pre-treated human milk α-lactalbumin, casein trained column (protein, UniProt P00709 20-142, looked up)
# Alpha-lactalbumin: B1 Alpha-lactalbumin
# modifications: multimeric form
# notes: second peak from EDTA pre-treated human milk α-lactalbumin, casein trained column
# B6: MAL: oligomeric complex of α-lactalbumin in molten globule-like state, from human milk casein by ion exchange, eluting at 1M NaCl (protein, UniProt P00709 20-142, looked up)
# Alpha-lactalbumin: B1 Alpha-lactalbumin
# modifications: oligomeric molten globule form
# notes: oligomeric complex of α-lactalbumin in molten globule-like state, from human milk casein by ion exchange, eluting at 1M NaCl
# B7: Human α-lactalbumin+, EDTA pre-treatment + EDTA buffer, MAL Peak 1: first peak from EDTA treated human milk α-lactalbumin run with EDTA buffers on casein trained column (protein, UniProt P00709 20-142, looked up)
# Alpha-lactalbumin: B1 Alpha-lactalbumin
# modifications: multimeric form
# notes: first peak from EDTA treated human milk α-lactalbumin run with EDTA buffers on casein trained column
# B8: α-lactalbumin treated with EDTA: EDTA treated α-lactalbumin completely converted to oligomeric form on casein conditioned column (protein, UniProt P00709 20-142, looked up)
# Alpha-lactalbumin: B1 Alpha-lactalbumin
# modifications: oligomeric form
# notes: EDTA treated α-lactalbumin completely converted to oligomeric form on casein conditioned column
# B9: Human α-lactalbumin+, Untreated, MAL Peak 2: second peak from human milk α-lactalbumin (ammonium sulphate precipitation), untreated, casein trained column (protein, UniProt P00709 20-142, looked up)
# Alpha-lactalbumin: B1 Alpha-lactalbumin
# modifications: multimeric form
# notes: second peak from human milk α-lactalbumin (ammonium sulphate precipitation), untreated, casein trained column
# B10: Example 1: multimeric product from commercial monomeric human α-lactalbumin on matrix pre-run with human milk casein (protein, UniProt P00709 20-142, looked up)
# Alpha-lactalbumin: B1 Alpha-lactalbumin
# modifications: multimeric form
# notes: multimeric product from commercial monomeric human α-lactalbumin on matrix pre-run with human milk casein
# B11: Human α-lactalbumin+, EDTA pre-treated, MAL Peak 1: first peak from EDTA pre-treated human milk α-lactalbumin, casein trained column (protein, UniProt P00709 20-142, looked up)
# Alpha-lactalbumin: B1 Alpha-lactalbumin
# modifications: multimeric form
# notes: first peak from EDTA pre-treated human milk α-lactalbumin, casein trained column
# B12: Human α-lactalbumin+, Untreated, MAL Peak 1: first peak from human milk α-lactalbumin (ammonium sulphate precipitation), untreated, casein trained column (protein, UniProt P00709 20-142, looked up)
# Alpha-lactalbumin: B1 Alpha-lactalbumin
# modifications: multimeric form
# notes: first peak from human milk α-lactalbumin (ammonium sulphate precipitation), untreated, casein trained column
# B13: Commercial human α-lactalbumin, Untreated, MAL Peak 2: second MAL peak from commercial (Sigma) human α-lactalbumin run on casein trained column (protein, UniProt P00709 20-142, looked up)
# Alpha-lactalbumin: B1 Alpha-lactalbumin
# modifications: multimeric form
# notes: second MAL peak from commercial (Sigma) human α-lactalbumin run on casein trained column
# B14: 2: multimeric product from monomeric bovine α-lactalbumin on matrix pre-run with human milk casein (protein, UniProt P00711 20-142, looked up)
# Alpha-lactalbumin: EQLTKCEVFRELKDLKGYGGVSLPEWVCTTFHTSGYDTQAIVQNNDSTEYGLFQINNKIWCKDDQNPHSSNICNISCDKFLDDDLTDDIMCVKKILDKVGINYWLAHKALCSEKLDQWLCEKL
# modifications: multimeric form
# notes: multimeric product from monomeric bovine α-lactalbumin on matrix pre-run with human milk casein
# Columns and labels:
# tumour cell lines [1] = assay: Tumour cell line viability, vital dye (trypan blue); type: cell-based; settings: for activity compared with protein isolated from human milk casein: tumour cell lines
# Protocol: The two peaks which are believed to contain MAL were kept separately and tested individually. Testing was carried out as described hereinafter in Example 4. Representative results are set out in Table 1.
# (§1) The biological efficacy of the products obtained in the above Examples 1 and 2 above was tested using tumour cell lines as described in Hakansson et al (1995) supra. Cell lines were incubated with samples of the products at various concentrations in cell culture media at 37° C. for various time points. After incubation, the cells are harvested and the cell viability determined using a vital dye (trypan blue).
# tumour cell lines [2] = assay: Apoptosis: oligonucleosome length DNA fragments by agarose gel electrophoresis; type: cell-based; settings: material eluting at MAL position (1 M NaCl)
# Protocol: as §1
# (§2) Oligonucleosome length DNA fragments were detected by agarose gel electrophoresis. Cells (2×10^6) were lysed in 5 mM Tris, 20 mM EDTA, 0.5% Triton X-100 pH 8.0 at 4° C. for 1 hour and centrifuged at 13,000×g for 15 minutes. DNA was ethanol precipitated overnight in −20° C., treated with proteinase K and RNAse, loaded on 1.8% agarose gels and electrophoresed with constant voltage set at 50V overnight. DNA fragments were visualized with ethidium bromide using a 305 nm UV-light source and photographed using Polaroid type 55 positive-negative film.
# L1210 cells = assay: Apoptosis-inducing activity / DNA fragmentation in L1210 cells; type: cell-based; settings: 0.7 mg/ml
# Protocol: as §2
# The lipid concentration was defined in “MAL equivalents” as the amount extracted from a defined mass of MAL. […] However, lipids from 0.5 or 1 mg of MAL had no effect on cell viability or DNA fragmentation. […] MAL lipids were not active at concentrations when intact MAL killed the cells.
# [3] = system: cancer cells and immature cells; settings: cancer cells and immature cells versus healthy cells; cited from earlier work
Molecule,Viability of tumour cells (tumour cell lines [1]; Dosage 0.5 mg/ml),Viability of tumour cells (tumour cell lines [1]; Dosage 1.0 mg/ml),also measured
"Commercial bovine α-lactalbumin, untreated, MAL Peak 1: first MAL peak from commercial (Sigma) bovine α-lactalbumin run on casein trained column",0%,,Viability of tumour cells (tumour cell lines [1]; Dosage 0.3 mg/ml): 50%
"Commercial bovine α-lactalbumin, untreated, MAL Peak 2: second MAL peak from commercial (Sigma) bovine α-lactalbumin run on casein trained column",98%,98%,
B1,,,apoptosis-inducing / biological activity of converted material (tumour cell lines [2]): no apoptosis-inducing activity
B2,89%,0%,
B3,0%,0%,
B4,,,apoptosis-inducing / biological activity of converted material (tumour cell lines [2]): apoptosis-inducing activity
B5,,,Viability of tumour cells (tumour cell lines [1]; Dosage ca. 1.5 mg/ml): 98%
B6,,,"apoptosis induction (reduction of cell viability, DNA fragments) (L1210 cells): induced apoptosis; apoptotic cell death [3]: induces apoptotic cell death in cancer cells and immature cells, but not in healthy cells"
B7,0%,0%,
B8,,,apoptosis-inducing / biological activity of converted material (tumour cell lines [2]): significant biological activity
B9,,95%,
B10,,,activity compared with protein isolated from human milk casein (tumour cell lines [1]): similar
B11,,0%,
B12,,79%,
B13,,0%,
B14,,,activity compared with protein isolated from human milk casein (tumour cell lines [1]): similar
